# Measurements taken from patent US11466067B2 (priority 2019, dated 2022).
# B1: IL-10 delivery construct: recombinant homodimeric fusion protein: N-terminal methionine, cholix386 domain, polyGlySer spacer, recombinant human IL-10 (protein)
# chain: MVEEALNIFDECRSPCSLTPEPGKPIQSKLSIPSDVVLDEGVLYYSMTINDEQNDIKDEDKGESIITIGEFATVRATRHYVNQDAPFGVIHLDITTENGTKTYSYNRKEGEFAINWLVPIGEDSPASIKISVDELDQQRNIIEVPKLYSIDLDNQTLEQWKTQGNVSFSVTRPEHNIAISWPSVSYKAAQKEGSRHKRWAHWHTGLALCWLVPMDAIYNYITQQNCTLGDNWFGGSYETVAGTPKVITVKQGIEQKPVEQRIHFSKGNAMSALAAHRVCGVPLETLARSRKPRDLTDDLSCAYQAQNIVSLFVATRILFSHLDSVFTLNLDEQEPEVAERLSDLRRINENNPGMVTQVLTVARQIYNDYVTHHPGLTPEQTSAGAQAGGGGSGGGGSGGGGSPGQGTQSENSCTHFPGNLPNMLRDLRDAFSRVKTFFQMKDQLDNLLLKESLLEDFKGYLGCQALSEMIQFYLEEVMPQAENQDPDIKAHVNSLGENLKTLRLRLRRCHRFLPCENKSKAVEQVKNAFNKLQEKGIYKAMSEFDIFINYIEAYMTMKIRN
# modifications: homodimer
# Experiments:
# [1] = Single oral capsule dose in NHP: plasma total IL-10; type: in vivo, Macaca fascicularis
# From the text: IL-10 delivery constructs (SEQ ID NO: 5) and caffeine were filled by weight into size-1 Capsugel V-Cap Hydroxypropyl Methylcellulose (HPMC) capsules, for oral administration. The capsules were then successively coated in a pan spray coater with three layers of polymers. The first and third layer were thin coatings of HPMC, the first to seal the crease where the capsule shells come together, and the third to minimize sticking of the capsules to each other. The second coating layer was comprised of a 50:50 mixture of Eudragit® (Evonik Industries AG) enteric acrylic polymers FS 30 D and L 30 D-55, designed to dissolve and allow the capsule to open at pH 6.5.
# The MSD Small Spot IL-10 plate was washed 3 times with PBST before use. Standards were prepared in Diluent 2 (MSD Cat No R51BB), and samples diluted 2-fold in Diluent 2. Standards and diluted samples were added to the assay plate and the plate incubated for 2 hours at room temperature with shaking. The plate was washed 3 times with PBST and 1×SULFO TAG anti-huIL-10. Antibody was added to the plate before incubation for 1 hour at room temperature with shaking. Following a wash step, 2×MSD Read buffer was added to the wells of the plate and the plate is read in the MSD Sector Imager 600 plate reader. The lower limit of detection of each analyte is defined as 2.5 standard deviation above background.
# Plasma samples were analyzed for Total IL-10, IL-1Ra, caffeine content and a panel of proinflammatory cytokines. Assay LLOQs were: total IL-10=0.3 pg/mL; IL-1Ra=78 pg/mL; and caffeine=[…]. Plasma concentration of IL-10 can refer to the concentration in plasma of both naturally occurring IL-10 and IL-10 appended to a carrier (for example, IL-10 in an IL-10 delivery construct described herein).
# IL-10 delivery construct dosing at multiple fixed doses in non-naïve adult male Macaca fascicularis was conducted by Valley Biosystems (West Sacramento, Calif.). […] Dosing groups are described in TABLE 45.
# Animals were fasted until after the 3 hour blood sample collection, when food was given. For dosing, the animals were manually restrained and a bite block placed between the jaws. A pill gun containing the dosing capsule was inserted into the back of the oral cavity and the capsule released. Up to 4 capsules were administered consecutively and a small amount of water given to induce swallowing. Once the administration of the dose was confirmed, the bite block was removed and the head released.
# Blood samples were collected in K2EDTA tubes from each animal pre-dose and at 0.5, 1, 2, 3, 4, 5, 6, 7, 8, and 24 hours post-dose. Animals were returned to home cages following the 2-hour sample collection. Following physical restraint, blood samples were collected via direct venous puncture using a cephalic, femoral or saphenous vein, which were processed to plasma and stored frozen at −60° C. until shipment.
# [2] = test system: T lymphocytes and macrophages; test: Cellular target in Lamina propria (CD3, F4/80, pSTAT3) after oral gavage; type: in vivo, mouse
# [3] = Oral gavage 10 mg/kg in mice: hIL-10 and IL-1Ra time course; type: in vivo
# From the text: The inflammatory actions of IL-1β are modulated by the presence of a specific receptor antagonist known as IL-1Ra. Increased serum IL-1Ra levels can be induced by IL-10, which can occur in the absence of a pro-inflammatory state. With an appreciation of uncertainties associated with how much and when biologically active delivery construct is released from the stomach to reach the small intestine as well as the timing of its uptake and actions within the Lamina propria following oral gavage, we examined IL-1Ra to function in non-inflamed mice as a biomarker of the IL-10 delivery construct's actions.
# To test this question, the delivery construct was directly deposited onto the luminal surface of colonic intestinal mucosa in a nonhuman primate model.
# [4] = Pan-colonic administration via sigmoidoscopy in NHP: plasma PK/PD; type: in vivo, cynomolgus monkeys
# Experimental: IL-10 delivery construct solution (at concentrations of 0.1, 0.3 and 1.0 mg/mL for the low, mid and high-dose groups respectively) was administered via the rectal route using sigmoidoscopy and a syringe connected to a spray nozzle with a 360° spray pattern. Serial biopsy samples were collected by sigmoidoscopy (pre-dose, 0.25, 0.5, 0.75, 8 and 24-28 hours post dose). Serial plasma samples from 0 min pre-dose to between 24-28 hours post-dose were collected for analysis for the IL-10 delivery construct.
# [5] = test system: STAT3 phosphorylation; test: In vivo pSTAT3 induction after intraluminal injection or oral gavage; set-up: species or system Balb/C mice; conditions: intraluminal injection, jejunum
# Experimental: In vivo studies in mice were performed where the biological activity of human IL-10 following transcytosis was assessed for its ability to stimulate the mouse IL-10 receptor and increase phosphorylation of STAT3 (pSTAT3) in cells within the Lamina propria.
# An extensive amount of rhIL-10 (SEQ ID NO: 5) was trafficked through enterocytes. Additionally, there were a population of lymphocyte-like cells at the basolateral surface of enterocytes and within the Lamina propria that were pSTAT3 positive.
# Entire intestines of mice were isolated and processed as a “swiss role” and localization of pSTAT3 was detected by immunofluorescence confocal microscopy (FIG. 110).
# [6] = test system: DSS-induced colitis; type: in vivo, C57BL6/J mice
molecule,measurement,setting,value
B1,plasma total IL-10 Tmax,[1]; 1 mg,4 h
same,plasma total IL-10 Tmax,[1]; 4 mg,3 h
same,plasma total IL-10 Tmax,[1]; 20.5 mg,2 hours post dose
same,plasma total IL-10 Tmax,[1]; 82 mg,2 hours post dose
same,plasma total IL-10 Cmax,"[1]; 82 mg (4×20.5 mg capsules), oral",1.34 pg/mL
same,CD3+ cells co-localizing with pSTAT3,[2]; 40 min after oral gavage,moderate proportion
same,F4/80 (macrophage) co-localization with pSTAT3,[2]; after oral gavage,extensive co-localization with pSTAT3
same,aggregation during freeze/thaw or at 1 week at 4 °C,"20 mg/mL, any condition tested",did not show any significant increases in aggregation
same,stability with respect to aggregation,initial lyophilization feasibility study,more stable at pH 7.5 with sucrose and glycine
same,hIL-10 in small intestinal lysates relative to colonic lysates,[3],~10 fold higher
same,serum IL-1Ra,[3]; 4 h,significantly increased
same,plasma construct concentration relative to total IL-10,[4]; 3 mg and 10 mg,10 fold lower
same,time to detection of total IL-10 in plasma,"[4]; 1, 3, 10 mg pan-colonic",≤ 15 min
same,systemic IL-6,[4]; 3 and 10 mg,moderately induced
same,"systemic IFN-γ, IL-1β, IL-2, IL-8","[4]; cynomolgus monkey, in vivo",did not lead to an increase
same,time of maximal plasma IL-1Ra,"[4]; cynomolgus monkey, in vivo",3 to 4 h
same,phosphorylation of STAT3 in cells within the Lamina propria,[5],increased phosphorylation of STAT3
same,"edema width, mid colon",[6]; 30 mg/kg,significantly improved
same,"hyperplasia, mid colon",[6]; 30 mg/kg,significantly improved
same,"mucosal thickness, mid colon",[6]; 30 mg/kg,significantly improved
same,colon length vs vehicle,"[6]; 10 and 30 mg/kg, p<0.05",Significant improvement
same,DSS-induced body weight loss,"[6]; construct 30 mg/kg, CsA 75 mg/kg, oral q.d.",significantly reduced DSS-induced weight loss
